Assays:
PKA [1] = target: T1, PKA (Bos taurus, UniProt P00517); assay: PKA phosphorylation of native GP antigen (α3(IV)NC1 monomer or hexamer) in the presence of C-terminal peptides; type: biochemical; conditions: for induction of GP antigen phosphorylation by PKA (22 kDa conformer of α3(IV)NC1): 0.1 μM ATP, 10 nmol peptide
Experimental: FIG. 16. Phosphorylation of GP alternative splicing products by PKA. In left panel, equimolecular amounts of rGP (lanes 1), rGPΔV (lanes 2), rGPΔIII (lanes 3) or rGPΔIII/IV/V (lanes 4), equivalent to 500 ng of the GP were phosphorylated at the indicated ATP concentrations. One-fifth of the total phosphorylation reaction mixture was separated by gel electrophoresis and transferred to PVDF, autoradiographed (shown) and the proteins blotted with M3/1, a specific monoclonal antibody recognizing all four species (shown) or using antibodies specific for each individual C-terminal region (not shown). […] Right panel: purified α3(IV)NC1 domain or hexamer was phosphorylated with PKA and 0.1 μM ATP in the absence (lanes 1) or in the presence of 10 nmol of peptides representing the C-terminal region of either GPΔIII (lanes 2) or GPΔIII/IV/V (lanes 3). Where indicated the phosphorylation mixtures of purified α3(IV)NC1 domain were V8 digested and immunoprecipitated with antibodies specific for the N terminus of the human α3(IV)NC1 domain (3). Bars and numbers indicate the position and sizes (kDa) of the molecular weight markers.
(§1) Phosphorylation studies. Phosphorylation studies were essentially done as described above (see also 3 and 11). In some experiments, the substrates were in-blot renatured and then, phosphorylated for 30 min at room temperature by overlaying 100 μl of phosphorylation buffer containing 0.5 μg of RGPBP. Digestion with V8 endopeptidase and immunoprecipitation were performed as described in (3).
Regulation of the phosphorylation of the human GP antigen by alternative splicing. We produced bacterial recombinant proteins representing the primary antigen (GP) or the individual alternative products GPΔV (SEQ ID NO:46), GPΔIII (SEQ ID NO:48) and GPΔIII/IV/V (SEQ ID NO:50), and we tested their ability to be phosphorylated by PKA (FIG. 16, left panel). […] Accordingly, the differences observed in phosphorylation for the full polypeptides also existed among the individual N-terminal regions, as determined after specific V8 digestion and immunoprecipitation (not shown). […]

PKA [2] = target: T1, PKA; assay: in vitro phosphorylation of the synthetic peptides by PKA; type: biochemical; conditions: not shown
GPBP = target: T2, GPBP (Homo sapiens, UniProt Q9Y5P4); assay: in vitro GPBP autophosphorylation in the presence of GPΔIII-derived peptide; type: biochemical; conditions: about 200 ng rGPBP, 150 μM ATP, 5 nmol peptide
T2 construct: made in house; host or cells: Pichia pastoris GS115
T2 sequence (Q9Y5P4 1-624): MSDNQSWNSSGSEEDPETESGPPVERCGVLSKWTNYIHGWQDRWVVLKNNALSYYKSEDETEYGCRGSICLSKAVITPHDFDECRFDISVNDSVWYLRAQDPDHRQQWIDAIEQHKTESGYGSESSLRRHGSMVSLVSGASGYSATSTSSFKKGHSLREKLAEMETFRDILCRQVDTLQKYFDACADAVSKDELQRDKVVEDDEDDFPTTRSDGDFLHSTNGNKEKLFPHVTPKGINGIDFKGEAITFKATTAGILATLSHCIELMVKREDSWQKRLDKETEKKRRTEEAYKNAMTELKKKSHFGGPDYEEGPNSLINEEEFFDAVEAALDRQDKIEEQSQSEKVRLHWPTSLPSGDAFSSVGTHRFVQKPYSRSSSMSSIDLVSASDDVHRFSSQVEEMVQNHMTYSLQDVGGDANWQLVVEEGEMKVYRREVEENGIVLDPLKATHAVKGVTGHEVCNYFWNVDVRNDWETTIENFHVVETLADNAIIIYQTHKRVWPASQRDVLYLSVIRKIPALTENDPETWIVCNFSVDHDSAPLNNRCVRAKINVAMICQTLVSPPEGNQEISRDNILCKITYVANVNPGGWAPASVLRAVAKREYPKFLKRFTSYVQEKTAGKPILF
Experimental: FIG. 20. Regulation of the GPBP by the C terminal region of GPΔIII. About 200 ng of RGPBP were in vitro phosphorylated with 150 μM ATP in the absence (lane 1) or in the presence of 5 nmol of GPΔIII-derived peptide synthesized either using Boc-(lane 2) or Fmoc-(lane 3) chemistry. The reaction mixtures were subjected to SDS-PAGE, transferred to PVDF and autoradiographed to assess autophosphorylation, and subsequently blotted with anti-FLAG monoclonal antibodies (Sigma) to determine the amount of recombinant material present (Western).
In vitro phosphorylation assays-About 200 ng of rGPBP were incubated overnight at 30° C. in 25 mM P-glycerolphosphate (pH 7.0), 0.5 mM EDTA, 0.5 mM EGTA, 8 mM MgCl2, 5 mM MnCl2, 1 mM DTT and 0.132 μM γ-^32P-ATP, in the presence or absence of 0.5-1 μg of protein substrates or 10 nmoles of synthetic peptides, in a total volume of 50 μl.
as §1

[3] = target: the molecule itself; assay: gel filtration HPLC and analytical centrifugation
Experimental: FIG. 11. rGPBP and rGPBPΔ26 form very active high molecular weight aggregates. About 300 μg of rGPBP (A) or rGPBPΔ26 (B) were subjected to gel filtration HPLC as described under Material and Methods. Vertical arrowheads and numbers respectively indicate the elution profile and molecular mass (kDa) of the molecular weight standards used. Larger aggregates eluted in the void volume (I), and the bulk of the material present in the samples eluted in the fractionation range of the column as a second peak between the 669 and 158 kDa markers (II). Fifteen microliters of the indicated minute fractions were subjected to SDS-PAGE and Coomasie blue staining. Five microliters of the same fractions were in vitro phosphorylated as described in Materials and Methods, and the reaction stopped by boiling in SDS sample buffer. The fractions were loaded onto SDS-PAGE, transferred to PVDF and autoradiographed for 1 or 2 hours using Kodak X-Omat films and blotted using anti-FLAG monoclonal antibodies (Sigma).
Northern hybridization studies Pre-made human multiple-tissue and tumor cell-line Northern Blots (CLONTECH) were probed with a cDNA containing the 78-bp exon present only in GPBP or with a cDNA representing both isoforms. […] The material was eluted from the column at 0.5 ml/min, monitored at 220 nm and minute fractions collected. […]

GPpep1 = target: T3, GPpep1
T3 chain: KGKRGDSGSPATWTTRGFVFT

[4] = target: T4, prokaryotic human recombinant α3(IV)NC1
T4 chain: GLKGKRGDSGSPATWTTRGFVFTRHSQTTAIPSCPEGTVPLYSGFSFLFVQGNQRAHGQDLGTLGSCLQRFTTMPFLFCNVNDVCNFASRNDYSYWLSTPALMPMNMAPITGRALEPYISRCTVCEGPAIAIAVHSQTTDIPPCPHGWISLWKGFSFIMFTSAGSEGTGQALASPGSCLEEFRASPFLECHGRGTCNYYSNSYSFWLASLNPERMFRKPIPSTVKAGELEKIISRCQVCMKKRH

[5] = target: T5, native bovine α3(IV)NC1 domain (bovine GP antigen), Q28084
T5 chain: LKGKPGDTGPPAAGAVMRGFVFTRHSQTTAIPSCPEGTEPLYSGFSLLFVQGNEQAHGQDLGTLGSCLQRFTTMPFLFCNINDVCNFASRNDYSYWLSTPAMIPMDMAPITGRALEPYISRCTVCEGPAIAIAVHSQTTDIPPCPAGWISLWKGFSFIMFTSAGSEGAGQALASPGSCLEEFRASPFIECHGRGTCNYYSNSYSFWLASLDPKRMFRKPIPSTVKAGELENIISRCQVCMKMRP

Molecule: QRAHGQDLESLFHQL [SEQ ID NO:44, synthetic peptide representing the C-terminal region of GPΔIII/IV/V]
- induction of GP antigen phosphorylation by PKA (22 kDa conformer of α3(IV)NC1) (PKA [1]): induced the phosphorylation of a single polypeptide

Molecule: QRAHGQDLDALFVKVLRSP [Boc-based peptide]
- in vitro substrate of PKA (PKA [2]): in vitro substrates of PKA
- effect on GPBP autophosphorylation (GPBP): positively influenced GPBP autophosphorylation
- retention of ability to induce PKA on storage (PKA [1]; long storage at low temperatures): loses its ability to induce PKA

Molecule: QRAHGQDLDALFVKVLRSP [SEQ ID NO: 43, synthetic peptide representing the C-terminal region of GPΔIII]
- induction of GP antigen phosphorylation by PKA (22 kDa conformer of α3(IV)NC1) (PKA [1]): induced the phosphorylation of a single polypeptide

Molecule: QRAHGQDLDALFVKVLRSP [Fmoc-based peptide]
- in vitro substrate of PKA (PKA [2]): not
- effect on GPBP autophosphorylation (GPBP): inhibited GPBP autophosphorylation

B1: FLAG-tagged recombinant GPBP (rGPBP) (enzyme)
chain: DYKDDDDKMSDNQSWNSSGSEEDPETESGPPVERCGVLSKWTNYIHGWQDRWVVLKNNALSYYKSEDETEYGCRGSICLSKAVITPHDFDECRFDISVNDSVWYLRAQDPDHRQQWIDAIEQHKTESGYGSESSLRRHGSMVSLVSGASGYSATSTSSFKKGHSLREKLAEMETFRDILCRQVDTLQKYFDACADAVSKDELQRDKVVEDDEDDFPTTRSDGDFLHSTNGNKEKLFPHVTPKGINGIDFKGEAITFKATTAGILATLSHCIELMVKREDSWQKRLDKETEKKRRTEEAYKNAMTELKKKSHFGGPDYEEGPNSLINEEEFFDAVEAALDRQDKIEEQSQSEKVRLHWPTSLPSGDAFSSVGTHRFVQKPYSRSSSMSSIDLVSASDDVHRFSSQVEEMVQNHMTYSLQDVGGDANWQLVVEEGEMKVYRREVEENGIVLDPLKATHAVKGVTGHEVCNYFWNVDVRNDWETTIENFHVVETLADNAIIIYQTHKRVWPASQRDVLYLSVIRKIPALTENDPETWIVCNFSVDHDSAPLNNRCVRAKINVAMICQTLVSPPEGNQEISRDNILCKITYVANVNPGGWAPASVLRAVAKREYPKFLKRFTSYVQEKTAGKPILF
modifications: phosphoserine, phosphothreonine and phosphotyrosine present, sites not given
notes: Made in Pichia pastoris or 293 cells; also called FLAG-n4′
- binding result [3]: binds

B2: FLAG-tagged recombinant GPBPΔ26 (rGPBPΔ26) (enzyme)
chain: DYKDDDDKMSDNQSWNSSGSEEDPETESGPPVERCGVLSKWTNYIHGWQDRWVVLKNNALSYYKSEDETEYGCRGSICLSKAVITPHDFDECRFDISVNDSVWYLRAQDPDHRQQWIDAIEQHKTESGYGSESSLRRHGSMVSLVSGASGYSATSTSSFKKGHSLREKLAEMETFRDILCRQVDTLQKYFDACADAVSKDELQRDKVVEDDEDDFPTTRSDGDFLHSTNGNKEKLFPHVTPKGINGIDFKGEAITFKATTAGILATLSHCIELMVKREDSWQKRLDKETEKKRRTEEAYKNAMTELKKKSHFGGPDYEEGPNSLINEEEFFDAVEAALDRQDKIEEQSQSEKVRLHWPTSLPSGDAFSSVGTHRFVQKVEEMVQNHMTYSLQDVGGDANWQLVVEEGEMKVYRREVEENGIVLDPLKATHAVKGVTGHEVCNYFWNVDVRNDWETTIENFHVVETLADNAIIIYQTHKRVWPASQRDVLYLSVIRKIPALTENDPETWIVCNFSVDHDSAPLNNRCVRAKINVAMICQTLVSPPEGNQEISRDNILCKITYVANVNPGGWAPASVLRAVAKREYPKFLKRFTSYVQEKTAGKPILF
notes: From plasmid pHIL-FLAG-n4′Δ26, expressed in Pichia pastoris
- binding result [3]: binds
- trans-phosphorylation activity with 5 nmol GPpep1 (GPpep1): the reduced in-solution auto- and trans-phosphorylation activities displayed by rGPBPΔ26
- disruption of disulfide-based aggregates, Western blot [4]: GPBP and, to a lesser extent GPBPΔ26 disrupted disulfide-based high molecular weight aggregates characteristic of recombinant material representing human α3(IV)NC1 produced in bacteria
- conformers and oligomers after DTT consumption, Western blot [5]: Essentially the same results were obtained when blotting the samples that contained GPBPΔ26

From patent US6881547B1, “Methods and reagents for treating autoimmune disorders” (priority 2001, dated 2005)
